Results taken from US20260167699A1 (Chugai, published 2026).

B1: GpH7-A5/GpH7-B3 variant Q295_07I/GpL16-k0 (antibody, human IgG1, kappa)
heavy 1: not shown
heavy 2: not shown
light: DIVMTQSPLSLPVTPGEPASISCQASESLVHSNRNTYLHWYLQKPGQSPQLLIYKVSNRFSGVPDRFSGSGSGTDFTLKISRVEAEDVGVYYCSQNTHVPPTFGQGTKVEIERTVAAPSVFIFPPSDEQLKSGTASVVCLLNNFYPREAKVQWKVDNALQSGNSQESVTEQDSKDSTYSLSSTLTLSKADYEKHKVYACEVTHQGLSSPVTKSFNRGEC
notes: copies: 1 + 1 + 2
B2: GpH7-A5/GpH7-B3 variant S267_18N/GpL16-k0 (antibody, human IgG1, kappa)
heavy 1: not shown
heavy 2: not shown
light: B1 light
notes: copies: 1 + 1 + 2
B3: GpH7-A5/GpH7-B3 variant S298_03V/GpL16-k0 (antibody, human IgG1, kappa)
heavy 1: not shown
heavy 2: not shown
light: B1 light
notes: copies: 1 + 1 + 2
B4: GpH7-A5/GpH7-B3 variant Q295_08L/GpL16-k0 (antibody, human IgG1, kappa)
heavy 1: not shown
heavy 2: not shown
light: B1 light
notes: copies: 1 + 1 + 2
B5: GpH7-A5/GpH7-B3 variant S239_19Q/GpL16-k0 (antibody, human IgG1, kappa)
heavy 1: not shown
heavy 2: not shown
light: B1 light
notes: copies: 1 + 1 + 2
B6: GpH7-A5/GpH7-B3 variant S239_14T/GpL16-k0 (antibody, human IgG1, kappa)
heavy 1: not shown
heavy 2: not shown
light: B1 light
notes: copies: 1 + 1 + 2
B7: GpH7-A5/GpH7-B3 variant S239_09D/GpL16-k0 (antibody, human IgG1, kappa)
heavy 1: not shown
heavy 2: not shown
light: B1 light
notes: copies: 1 + 1 + 2
B8: GpH7-A5/GpH7-B3 variant Q295_09D/GpL16-k0 (antibody, human IgG1, kappa)
heavy 1: not shown
heavy 2: not shown
light: B1 light
notes: copies: 1 + 1 + 2
B9: GpH7-A5/GpH7-B3 variant S267_09D/GpL16-k0 (antibody, human IgG1, kappa)
heavy 1: not shown
heavy 2: not shown
light: B1 light
notes: copies: 1 + 1 + 2
B10: GpH7-A5/GpH7-B3 variant Q295_16H/GpL16-k0 (antibody, human IgG1, kappa)
heavy 1: not shown
heavy 2: not shown
light: B1 light
notes: copies: 1 + 1 + 2
B11: GpH7-A5/GpH7-B3 variant S298_14T/GpL16-k0 (antibody, human IgG1, kappa)
heavy 1: not shown
heavy 2: not shown
light: B1 light
notes: copies: 1 + 1 + 2
B12: GpH7-A5/GpH7-B3 variant Q295_10E/GpL16-k0 (antibody, human IgG1, kappa)
heavy 1: not shown
heavy 2: not shown
light: B1 light
notes: copies: 1 + 1 + 2
B13: GpH7-A5/GpH7-B3 variant S298_12R/GpL16-k0 (antibody, human IgG1, kappa)
heavy 1: not shown
heavy 2: not shown
light: B1 light
notes: copies: 1 + 1 + 2
B14: GpH7-A5/GpH7-B3 variant S298_09D/GpL16-k0 (antibody, human IgG1, kappa)
heavy 1: not shown
heavy 2: not shown
light: B1 light
notes: copies: 1 + 1 + 2
B15: GpH7-A5/GpH7-B3 variant S267_01G/GpL16-k0 (antibody, human IgG1, kappa)
heavy 1: not shown
heavy 2: not shown
light: B1 light
notes: copies: 1 + 1 + 2
B16: GpH7-A5/GpH7-B3 variant Q295_12R/GpL16-k0 (antibody, human IgG1, kappa)
heavy 1: not shown
heavy 2: not shown
light: B1 light
notes: copies: 1 + 1 + 2
B17: GpH7-A5/GpH7-B3 variant S267_19Q/GpL16-k0 (antibody, human IgG1, kappa)
heavy 1: not shown
heavy 2: not shown
light: B1 light
notes: copies: 1 + 1 + 2
B18: GpH7-A5/GpH7-B3 variant Q295_13S/GpL16-k0 (antibody, human IgG1, kappa)
heavy 1: not shown
heavy 2: not shown
light: B1 light
notes: copies: 1 + 1 + 2
B19: GpH7-A5/GpH7-B3 variant Q295_14T/GpL16-k0 (antibody, human IgG1, kappa)
heavy 1: not shown
heavy 2: not shown
light: B1 light
notes: copies: 1 + 1 + 2
B20: GpH7-A5/GpH7-B3 variant Q295_15Y/GpL16-k0 (antibody, human IgG1, kappa)
heavy 1: not shown
heavy 2: not shown
light: B1 light
notes: copies: 1 + 1 + 2
B21: GpH7-A5/GpH7-B3 variant S298_07I/GpL16-k0 (antibody, human IgG1, kappa)
heavy 1: not shown
heavy 2: not shown
light: B1 light
notes: copies: 1 + 1 + 2
B22: GpH7-A5/GpH7-B3 variant Q295_11K/GpL16-k0 (antibody, human IgG1, kappa)
heavy 1: not shown
heavy 2: not shown
light: B1 light
notes: copies: 1 + 1 + 2
B23: GpH7-A5/GpH7-B3 variant S267_02A/GpL16-k0 (antibody, human IgG1, kappa)
heavy 1: not shown
heavy 2: not shown
light: B1 light
notes: copies: 1 + 1 + 2
B24: GpH7-A5/GpH7-B3 variant S298_08L/GpL16-k0 (antibody, human IgG1, kappa)
heavy 1: not shown
heavy 2: not shown
light: B1 light
notes: copies: 1 + 1 + 2
B25: GpH7-A5/GpH7-B3 variant S239_02A/GpL16-k0 (antibody, human IgG1, kappa)
heavy 1: not shown
heavy 2: not shown
light: B1 light
notes: copies: 1 + 1 + 2
B26: GpH7-A5/GpH7-B3 variant Q295_18N/GpL16-k0 (antibody, human IgG1, kappa)
heavy 1: not shown
heavy 2: not shown
light: B1 light
notes: copies: 1 + 1 + 2
B27: GpH7-A5/GpH7-B3 variant S298_06M/GpL16-k0 (antibody, human IgG1, kappa)
heavy 1: not shown
heavy 2: not shown
light: B1 light
notes: copies: 1 + 1 + 2
B28: GpH7-A5/GpH7-B3 variant S239_08L/GpL16-k0 (antibody, human IgG1, kappa)
heavy 1: not shown
heavy 2: not shown
light: B1 light
notes: copies: 1 + 1 + 2
B29: GpH7-A5/GpH7-B3 variant S298_04F/GpL16-k0 (antibody, human IgG1, kappa)
heavy 1: not shown
heavy 2: not shown
light: B1 light
notes: copies: 1 + 1 + 2
B30: GpH7-A5/GpH7-B3 variant S239_03V/GpL16-k0 (antibody, human IgG1, kappa)
heavy 1: not shown
heavy 2: not shown
light: B1 light
notes: copies: 1 + 1 + 2
B31: GpH7-A5/GpH7-B3 variant S267_10E/GpL16-k0 (antibody, human IgG1, kappa)
heavy 1: not shown
heavy 2: not shown
light: B1 light
notes: copies: 1 + 1 + 2
B32: GpH7-A5/GpH7-B3 variant S239_01G/GpL16-k0 (antibody, human IgG1, kappa)
heavy 1: not shown
heavy 2: not shown
light: B1 light
notes: copies: 1 + 1 + 2
B33: GpH7-A5/GpH7-B3 variant S298_01G/GpL16-k0 (antibody, human IgG1, kappa)
heavy 1: not shown
heavy 2: not shown
light: B1 light
notes: copies: 1 + 1 + 2
B34: GpH7-A5/GpH7-B3 variant S239_06M/GpL16-k0 (antibody, human IgG1, kappa)
heavy 1: not shown
heavy 2: not shown
light: B1 light
notes: copies: 1 + 1 + 2
B35: GpH7-A5/GpH7-B3 variant S239_07I/GpL16-k0 (antibody, human IgG1, kappa)
heavy 1: not shown
heavy 2: not shown
light: B1 light
notes: copies: 1 + 1 + 2
B36: GpH7-A5/GpH7-B3 variant S239_18N/GpL16-k0 (antibody, human IgG1, kappa)
heavy 1: not shown
heavy 2: not shown
light: B1 light
notes: copies: 1 + 1 + 2
B37: GpH7-A5/GpH7-B3 variant S298_02A/GpL16-k0 (antibody, human IgG1, kappa)
heavy 1: not shown
heavy 2: not shown
light: B1 light
notes: copies: 1 + 1 + 2
B38: GpH7-A5/GpH7-B3 variant S239_10E/GpL16-k0 (antibody, human IgG1, kappa)
heavy 1: not shown
heavy 2: not shown
light: B1 light
notes: copies: 1 + 1 + 2
B39: GpH7-A5/GpH7-B3 variant S298_11K/GpL16-k0 (antibody, human IgG1, kappa)
heavy 1: not shown
heavy 2: not shown
light: B1 light
notes: copies: 1 + 1 + 2
B40: GpH7-A5/GpH7-B3 variant S267_06M/GpL16-k0 (antibody, human IgG1, kappa)
heavy 1: not shown
heavy 2: not shown
light: B1 light
notes: copies: 1 + 1 + 2

Each binder was assayed against T1, FcγRIIIa (human, UniProt P08637 17-208) (assay: SPR (Biacore);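 note: antibody variants captured on an SPR sensor chip, with FcγRIIIa passed over as analyte in HBS-EP+ buffer at 25 °C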).
T1 construct: extracellular domain; also called 3a; FcγRIIIa extracellular domain
T1 sequence (P08637 other isoform, or with tags, fused parts or gaps): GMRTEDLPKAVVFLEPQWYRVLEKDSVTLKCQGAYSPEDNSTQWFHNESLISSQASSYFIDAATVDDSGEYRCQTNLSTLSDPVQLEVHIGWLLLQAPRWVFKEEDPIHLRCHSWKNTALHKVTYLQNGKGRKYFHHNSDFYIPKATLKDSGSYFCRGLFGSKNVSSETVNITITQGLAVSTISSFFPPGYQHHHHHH

| Binder | He/Con 3a |
| --- | --- |
| B1 | 101 % of GpH7-A5/GpH7-B3/GpL16-k0 |
| B2 | 52 % of GpH7-A5/GpH7-B3/GpL16-k0 |
| B3 | 103 % of GpH7-A5/GpH7-B3/GpL16-k0 |
| B4 | 120 % of GpH7-A5/GpH7-B3/GpL16-k0 |
| B5 | 53.8 % of GpH7-A5/GpH7-B3/GpL16-k0 |
| B6 | 93 % of GpH7-A5/GpH7-B3/GpL16-k0 |
| B7 | 156 % of GpH7-A5/GpH7-B3/GpL16-k0 |
| B8 | 85.6 % of GpH7-A5/GpH7-B3/GpL16-k0 |
| B9 | 179 % of GpH7-A5/GpH7-B3/GpL16-k0 |
| B10 | 80.2 % of GpH7-A5/GpH7-B3/GpL16-k0 |
| B11 | 106 % of GpH7-A5/GpH7-B3/GpL16-k0 |
| B12 | 105 % of GpH7-A5/GpH7-B3/GpL16-k0 |
| B13 | 52.1 % of GpH7-A5/GpH7-B3/GpL16-k0 |
| B14 | 62.7 % of GpH7-A5/GpH7-B3/GpL16-k0 |
| B15 | 53.3 % of GpH7-A5/GpH7-B3/GpL16-k0 |
| B16 | 73.2 % of GpH7-A5/GpH7-B3/GpL16-k0 |
| B17 | 64.3 % of GpH7-A5/GpH7-B3/GpL16-k0 |
| B18 | 90.4 % of GpH7-A5/GpH7-B3/GpL16-k0 |
| B19 | 120 % of GpH7-A5/GpH7-B3/GpL16-k0 |
| B20 | 81.5 % of GpH7-A5/GpH7-B3/GpL16-k0 |

| Binder | He/Con 3a |
| --- | --- |
| B21 | 90.7 % of GpH7-A5/GpH7-B3/GpL16-k0 |
| B22 | 81.8 % of GpH7-A5/GpH7-B3/GpL16-k0 |
| B23 | 149 % of GpH7-A5/GpH7-B3/GpL16-k0 |
| B24 | 69.2 % of GpH7-A5/GpH7-B3/GpL16-k0 |
| B25 | 70.9 % of GpH7-A5/GpH7-B3/GpL16-k0 |
| B26 | 85.7 % of GpH7-A5/GpH7-B3/GpL16-k0 |
| B27 | 87.2 % of GpH7-A5/GpH7-B3/GpL16-k0 |
| B28 | 90 % of GpH7-A5/GpH7-B3/GpL16-k0 |
| B29 | 77.6 % of GpH7-A5/GpH7-B3/GpL16-k0 |
| B30 | 72.4 % of GpH7-A5/GpH7-B3/GpL16-k0 |
| B31 | 90.9 % of GpH7-A5/GpH7-B3/GpL16-k0 |
| B32 | 72 % of GpH7-A5/GpH7-B3/GpL16-k0 |
| B33 | 74.9 % of GpH7-A5/GpH7-B3/GpL16-k0 |
| B34 | 73.9 % of GpH7-A5/GpH7-B3/GpL16-k0 |
| B35 | 75 % of GpH7-A5/GpH7-B3/GpL16-k0 |
| B36 | 104 % of GpH7-A5/GpH7-B3/GpL16-k0 |
| B37 | 151 % of GpH7-A5/GpH7-B3/GpL16-k0 |
| B38 | 171 % of GpH7-A5/GpH7-B3/GpL16-k0 |
| B39 | 50 % of GpH7-A5/GpH7-B3/GpL16-k0 |
| B40 | 65.3 % of GpH7-A5/GpH7-B3/GpL16-k0 |
